# Measurements: PMC12159676, “An uncharacterized gene from the Actinobacillus genus encodes a glucosyltransferase with successive transfer activity and unique substrate specificity” (The Journal of Biological Chemistry, 2025)
# Target: the molecule itself
# Assay: SEC; gel-filtration chromatography of purified AmGGT and its mutants, with protein size markers; self-association, dimer against monomer
Protein,stoichiometry N,binding result
"Actinobacillus minor glucoside-glucosyltransferase (AmGGT), wild type (enzyme, Actinobacillus minor NM305, UniProt C5RYK2 1-341, looked up, AmGGT, product of the ORF AM305_00150 of Actinobacillus minor strain NM305; ORF retrieved from NCBI, chemically synthesized, cloned into pET47b; The whole ORF was cloned; residues left over from the 3C protease site after cleavage are not described; also called AM305_00150 protein; WT AmGGT; source: E. coli BL21(DE3), purified (Ni-Sepharose, 3C protease cleavage, gel filtration; also HiTrapQ ion …)) MSNITFYFPFGHVPTYGGDFVNLEHIRALNKHGFSAKVILMKNQIPIVIESFPKDIPVVFYKPGMELNAQDVFVLSEGVRIMYSGLAQTQAFRVIVHNQNPFYTHTGMDSAHDINRYRITKIITPSHYTVKKLEEMGITKPMAVISPYIPEYFKPAEKSNEEIRITYSRRKREEESKILLFYLRSLYRGKKALHIRNLTNYKREEVAEEMSKAHIYASFAERESLGLMALEAMASGCHVVGFSGFTDFENQDVFNEENGDWVKEGEYKKFAEKLIEAIEQIENNTPSPKIENGLALVNSRFRQDRFEQEVVRVYQDILDNLPPLEGFNESDKVVLDFWHFD",2,
"AmGGT S185A mutant (enzyme, AmGGT, product of the ORF AM305_00150 of Actinobacillus minor strain NM305, with S185A; Production of the mutants is not described separately; source: E. coli BL21(DE3), purified (as told for the AmGGT protein); not shown: His6, N-terminal, cleaved) MSNITFYFPFGHVPTYGGDFVNLEHIRALNKHGFSAKVILMKNQIPIVIESFPKDIPVVFYKPGMELNAQDVFVLSEGVRIMYSGLAQTQAFRVIVHNQNPFYTHTGMDSAHDINRYRITKIITPSHYTVKKLEEMGITKPMAVISPYIPEYFKPAEKSNEEIRITYSRRKREEESKILLFYLRALYRGKKALHIRNLTNYKREEVAEEMSKAHIYASFAERESLGLMALEAMASGCHVVGFSGFTDFENQDVFNEENGDWVKEGEYKKFAEKLIEAIEQIENNTPSPKIENGLALVNSRFRQDRFEQEVVRVYQDILDNLPPLEGFNESDKVVLDFWHFD",,binds
"AmGGT E135A mutant (enzyme, AmGGT, product of the ORF AM305_00150 of Actinobacillus minor strain NM305, with E135A; Production of the mutants is not described separately; source: E. coli BL21(DE3), purified (as told for the AmGGT protein); not shown: His6, N-terminal, cleaved) MSNITFYFPFGHVPTYGGDFVNLEHIRALNKHGFSAKVILMKNQIPIVIESFPKDIPVVFYKPGMELNAQDVFVLSEGVRIMYSGLAQTQAFRVIVHNQNPFYTHTGMDSAHDINRYRITKIITPSHYTVKKLEAMGITKPMAVISPYIPEYFKPAEKSNEEIRITYSRRKREEESKILLFYLRSLYRGKKALHIRNLTNYKREEVAEEMSKAHIYASFAERESLGLMALEAMASGCHVVGFSGFTDFENQDVFNEENGDWVKEGEYKKFAEKLIEAIEQIENNTPSPKIENGLALVNSRFRQDRFEQEVVRVYQDILDNLPPLEGFNESDKVVLDFWHFD",,binds
